Measured values taken from patent publication US20180142226.
Numbering of substitutions follows the chain as printed. In names and notes the source's numbering stands.

T1: PFPQPQQPF peptide
T1 chain: PFPQPQQPF

T2: PFPQPQLPY peptide
T2 chain: PFPQPQLPY

B1: Kuma070 (protein)
chain: AAPTAYTPLDVAQAYQFPEGLDGQGQCIAIIELGGGYDEASLAQYFASLGVPAPQVVSVSVDGASNQPTGDPKGPDGEVTLDIEVAGALAPGAKFAVYFAPDTTAGFLDAITTAIHDPTLKPSVVSISWAMPEDSWTSAAIAAMNRAFLDAAALGVTVLAAAGDSGSTGGEQDGLYHVFFPAASPYVLACGGTRLVASGGRIAQETVWNQGPDGGATGGGVSRIFPLPAWQEHANVPPSANPGASSGRGVPDLAGNADPQTGYEVVIDGEATVTGGTSAVAPLFAALVARINQKLGKAVGYLNPTLYQLPADVFHDITEGNNDIANRAQIYQAGPGWDPCTGLGSPIGVRLLQALLPSASQPQPGSTENLYFQSGALEHHHHHH
B2: Kuma010 (protein)
chain: AAPTAYTPLDVAQAYQFPEGLDGQGQCIAIIELGGGYDEASLAQYFASLGVPAPQVVSVSVDGASNQPTGDPKGPDGEVELDIEVAGALAPGAKFAVYFAPDTTAGFLDAITTAIHDPTLKPSVVSISWSGPEDSWTSAAIAAMNRAFLDAAALGVTVLAAAGDSGSTGGEQDGLYHVHFPAASPYVLACGGTRLVASGGRIAQETVWNDGPDGGATGGGVSRIFPLPAWQEHANVPPSANPGASSGRGVPDLAGNADPATGYEVVIDGEATVIGGTSAVAPLFAALVARINQKLGKAVGYLNPTLYQLPADVFHDITEGNNDIANRAQIYQAGPGWDPCTGLGSPIGVRLLQALLPSASQPQGSTENLYFQSGALEHHHHHH
B3: Kuma021 (protein)
chain: AAPTAYTPLDVAQAYQFPEGLDGQGQCIAIIELGGGYDEASLAQYFASLGVPAPQVVSVSVDGASNQPTGDPKGPDGEVELDIEVAGALAPGAKFAVYFAPDTTAGFLDAITTAIHDPTLKPSVVSISWSGPEDSWTSAAIAAMNRAFLDAAALGVTVLAAAGDSGSTSGEQDGLYHVHFPAASPYVLACGGTRLVASGGRIAQETVWNQGPDGGATGGGVSRIFPLPAWQEHANVPPSANPGASSGRGVPDLAGNADPQTGYEVVIDGEATVTGGTSAVAPLFAALVARINQKLGKAVGYLNPTLYQLPADVFHDITEGNNDIANRAQIYQAGPGWDPCTGLGSPIGVRLLQALLPSASQPQP
B4: Kuma042 (protein)
chain: B3 chain with E80T, S130A, S169G, H179F
B5: Kuma032 (protein)
chain: B3 chain with K73E, E80T, S165Q
B6: Kuma062 (protein)
chain: B3 chain with K73E, E80T, G131M, S165Q
B7: Kuma031 (protein)
chain: B3 chain with K73E, E80T, S165Q
B8: Kuma041 (protein)
chain: B3 chain with E80T, S130A, S169G, H179F
B9: Kuma011-L270V (protein)
chain: AAPTAYTPLDVAQAYQFPEGLDGQGQCIAIIELGGGYDEASLAQYFASLGVPAPQVVSVSVDGASNQPTGDPKGPDGEVEVDIEVAGALAPGAKFAVYFAPDTTAGFLDAITTAIHDPTLKPSVVSISWSGPEDSWTSAAIAAMNRAFLDAAALGVTVLAAAGDSGSTGGEQDGLYHVHFPAASPYVLACGGTRLVASGGRIAQETVWNDGPDGGATGGGVSRIFPLPAWQEHANVPPSANPGASSGRGVPDLAGNADPATGYEVVIDGEATVIGGTSAVAPLFAALVARINQKLGKAVGYLNPTLYQLPADVFHDITEGNNDIANRAQIYQAGPGWDPCTGLGSPIGVRLLQALLPSASQPQ
B10: Kuma011-S354R (protein)
chain: B9 chain with V81L, S165R
B11: Kuma011-S354E (protein)
chain: B9 chain with V81L, S165E
B12: Kuma011-S354Y (protein)
chain: B9 chain with V81L, S165Y
B13: Kuma011-T461R (protein)
chain: B9 chain with V81L, T272R
B14: Kuma011-I463A (protein)
chain: B9 chain with V81L, I274A
B15: Kuma011-I463M (protein)
chain: B9 chain with V81L, I274M
B16: Kuma011-H368F (protein)
chain: B9 chain with V81L, H179F
B17: Kuma011-G358N (protein)
chain: B9 chain with V81L, G169N
B18: Kuma011-D399Q (protein)
chain: B9 chain with V81L, D210Q
B19: Kuma011-A449E (protein)
chain: B9 chain with V81L, A260E
B20: Kuma011-D402Q (protein)
chain: B9 chain with V81L, D213Q
B21: Kuma011-G358Q (protein)
chain: B9 chain with V81L, G169Q
B22: Kuma011-S354A (protein)
chain: B9 chain with V81L, S165A
B23: Kuma010/011 A449N (protein)
chain: B9 chain with V81L, A260N
B24: Kuma011-I463L (protein)
chain: B9 chain with V81L, I274L
B25: Kuma011-G358S (protein)
chain: B9 chain with V81L, G169S
B26: Kuma011-G358T (protein)
chain: B9 chain with V81L, G169T
B27: Kuma010/011 S319A (protein)
chain: B9 chain with V81L, S130A
B28: Kuma011-T406S (protein)
chain: B9 chain with V81L, T217S
B29: Kuma011-H368Q (protein)
chain: B9 chain with V81L, H179Q
B30: Kuma011-S354Q (protein)
chain: B9 chain with V81L, S165Q
B31: Kuma011-D402S (protein)
chain: B9 chain with V81L, D213S

Experiments:
PFPQPQQPF peptide = molecular target: T1, PFPQPQQPF peptide
PFPQPQLPY peptide = molecular target: T2, PFPQPQLPY peptide

| Protein | % Improvement on PFPQPQQPF (SEQ ID NO: 68) (PFPQPQQPF peptide) | % Improvement on PFPQPQLPY (SEQ ID NO: 67) (PFPQPQLPY peptide) | further results |
| --- | --- | --- | --- |
| B1 |  |  | Activity Improvement over Background (Kuma040) (DQ2.5-glia-α1a): 2-3x (PQL); Activity Improvement over Background (Kuma040) (DQ2.5-glia-ω1): 2-4x (PQQ) |
| B2 |  |  | Kcat (DQ2.5-glia-α1a): 3.7 s⁻¹; Km (DQ2.5-glia-α1a): 4.6 mM; Vmax (DQ2.5-glia-α1a): 3.7e-07 M/s; kcat/Km (DQ2.5-glia-α1a): 819 M⁻¹ s⁻¹; Kcat (DQ2.5-glia-ω1): 1.2 s⁻¹; Km (DQ2.5-glia-ω1): 16.4 mM; Vmax (DQ2.5-glia-ω1): 1.22e-07 M/s; kcat/Km (DQ2.5-glia-ω1): 74 M⁻¹ s⁻¹ |
| B3 |  |  | Activity Improvement over Background (Kuma020) (peptides containing PQQ): 1.2-2.5x (PQQ); Activity Improvement over Background (Kuma020) (peptides containing PQL): 1-2x (PQL) |
| B4 |  |  | concentration of peptide breakdown product PFPQPQ over time (DQ2.5-glia-α1a): Kuma042 even shows a slight increase in activity against this substrate compared to Kuma040; Activity Improvement over Background (Kuma041) (peptides containing PQL): 1.2-1.5x (PQL) |
| B5 |  |  | concentration of peptide breakdown product PFPQPQ over time (DQ2.5-glia-α1a): Kuma032 and Kuma042 demonstrate comparable activity as Kuma030 and Kuma040; Activity Improvement over Background (Kuma031) (peptides containing PQL): No change (PQL); |
| B6 |  |  | detection of full-length peptide and of the PFPQPQ breakdown product over time (DQ2.5-glia-ω1): Kuma062 demonstrates a higher level of enzymatic activity than Kuma030 or Kuma040 |
| B7 |  |  | Activity Improvement over Background (Kuma030) (peptides containing PQL): No change (PQL); |
| B8 |  |  | Activity Improvement over Background (Kuma040) (peptides containing PQL): 1.0-1.2x (PQL) |
| B9 | 61% | 474% |  |
| B10 | 82% | 109% |  |
| B11 | 120% | 124% |  |
| B12 | 105% | 46% |  |
| B13 | 86% | 120% |  |
| B14 | 234% | 51% |  |
| B15 | 53% | 123% |  |
| B16 | 104% | 334% |  |

| Protein | % Improvement on PFPQPQQPF (SEQ ID NO: 68) (PFPQPQQPF peptide) | % Improvement on PFPQPQLPY (SEQ ID NO: 67) (PFPQPQLPY peptide) | further results |
| --- | --- | --- | --- |
| B17 | 99% | 120% |  |
| B18 | 208% | 149% |  |
| B19 | 208% | 149% |  |
| B20 | 111% | 164% |  |
| B21 | 149% | 147% |  |
| B22 | 140% | 152% |  |
| B23 | 118% | 119% |  |
| B24 | 22% | 124% |  |
| B25 | 224% | 331% |  |
| B26 | 128% | 283% |  |
| B27 | 184% | 154% |  |
| B28 | 101% | 84% |  |
| B29 | 195% | 199% |  |
| B30 | 141% | 145% |  |
| B31 | 108% | 94% |  |
